Test system: ACE-2 inhibitor peptide (the most active ACE-2 inhibitor peptide)

Substance	hydrolysis of the substrate hip-his-leu (250 mM) by ACE (1.5 nM)	conversion of angiotensin I to A1-9 by ACE-2
Angiotensin converting enzyme (ACE)	the inhibitor did not affect the hydrolysis of the substrate, hip-his-leu (250 mM) by ACE (1.5 nM), even at 25 mM	
recombinant human ACE-2		This peptide also inhibited conversion of angiotensin I to A1-9 by ACE-2
